The series in a line: soluble on expression in E. coli; label from the status in PepcDB or PDB records.
In the case of “MTIKKYKTALSGMFPEEIQSFCGLKEKFRAQQIFHWIASGVNSFDEMTNLSFDMRSKLKNDFSLFSTKIKEALKDKDGTIKLAVELYDGSVIETVLLTDKAKRKTACVSCQAGCPMKCAFCKTGQIGFLRNLSASEIVEQFLHLEREAGSLDNIVFMGMGEPMLNLPEIDKAINILAHPKGRNLSKRRITISTSGLCKGIYEMADKGPEVRLAVSLTTADETLRSELMPITKTNSLDELKQAIKYFNSKSNKRVTLELALMKGLNTDKKAAQEVIEFAKGLECFINLIPWNPVEGLNFKTPSETEVRTFETYLKKAGLNISTRQKRGQSIGGACGQLGSTAARSNRF”, the “soluble on expression in E. coli” value is “not soluble”.

For “STSCVAEEPIKKIAIFGGTHGNELTGVFLVTHWLKNGAEVHRAGLEVKPFITNPRAVEKCTRYIDCDLNRVFDLENLSKEMSEDLPYEVRRAQEINHLFGPKNSDDAYDVVFDLHNTTSNMGCTLILGDSGNDFLIQMFHYIKTCMAPLPCSVYLIEHPSLKYATTRSIAKYPVGIEVGPQPHGVLRADILDQMRRMLKHALDFIQRFNEGKEFPPCAIDVYKIMEKVDYPRNESGDVAAVIHPNLQDQDWKPLHPGDPVFVSLDGKVIPLGGDCTVYPVFVNEAAYYEKKEAFAKTTKLTLNAKSIRSTLH”, the “soluble on expression in E. coli” value is “soluble”.

In the case of “MSVKVAFIRHHNLWIKVDGKEIQITKGEYITGPKWSYDGEWLAYVKGKKQSILELYRLKDGKKVTPFHSEASNYQWSPTENIIAFIFTGTLNTFDVEKKNADFENVSAGVGDYAWYPDGKNFLVSSEAHLLPTGWTGAQLYEVQKDAHMNPHKMKHLYALPNEHDDFLALVASGFKWSPDQKWISFLAVPTASWSADSNTLCLVRADGSRFEKVDQMLLNAQWFQWAPSKNILAYIEGSGRVALENKHLKVKELPALQQNIFTPKGYVDWDFVWKNDRVIIVSRAKEAGIETPPEKRPLPSLYEVDSTSNAQHQITKKTNKQGDYHPIFMKKSNQLIWIRSDRKKADVWLAHKDRKQEKKWIENIDVPAWYYEKWNWGNVISVKEELEHHHHHH”, the “soluble on expression in E. coli” value was “soluble”.

Consider “MPKIISKRKFNILRKTKEEIFSQIVYTKKRNGLHKAAKEYYFKDKDFTIIEDQQDRPDKPEELDTPDIPKPPKPPKGPDQPEEPGQPGGPDDPNSGNKKMPKPDEFVTHRQLQEFKKDLLVELHEIFPTKPELKRVEEKVDVLFELQKAQGEQIRIQGEQIKELKVEQKAQGETLQLILQTLQKMNDRLDKIEGKMDKMESRMDKMETRLDKLESKLEHHHHHH”, for which the “soluble on expression in E. coli” value is “not soluble”.

As to “MASDGVVVEIGKVTGSVGTTVEIPVYFRGVPSKGIANCDFVFRYDPNVLEIIGIDPGDIIVDPNPTKSFDTAIYPDRKIIVFLFAEDSGTGAYAITKDGVFAKIRATVKSSAPGYITFDEVGGFADNDLVEQKVSFIDGGVNVGNATPTKGATPTNTATPTK”, the “soluble on expression in E. coli” value was “soluble”.

Regarding “KHPNNAIIIGDNLDALKLLKSAYSEKIKMIYIDPPYNTGNDEFIYPDNFRQDYQKILREVGLMEIDENGKEIESESLKFFKNTQGSGTHSGWLSFMLPRLKLARDLLKEDGVIFISIDDNECANLKILCDEIFGEDNFVGDFIRKTKSTTNDAKIGLNYQHEFLLCYAKDKNYTNLLGGEKNLENYKNPDNDPNGAWINDNPSAKSGNMKTGYFGVTNPYTNKVDYPPVGMFWRFSQNTIQKHIDEGRICFKKEHKDNERGFIYKRYLKDLKTTQKTFDSLIFSDNCYMNQAATKELLNLGMGEYFTYPKGVEFMKKIILHSTTPNEGDIILDFFAGSGTTVHAVMELNAEDKGNREFILVQIDEEIKEDESAYDFCKKELKSAKPVISDITIERVKRAAQKISQLSKDSGLDLGFKVYTLQDKVQII”, the “soluble on expression in E. coli” value is on record as “not soluble”.

Regarding “MSPKSLLITGANRGIGLGLLKQFLKHKDIQIIIATCRDPSKAEELSNLKDSRLHILPLDIDCDESISKLYAEVEKLVGEDGLTVLLNNAGILLPYDVEGEKNRKTLIRQLETNSVSTALITQEFLPLLKKAAAKNGGDGYSINRAAIVNISSTAASVEKIDGTFNGPLVAYRMSKSALNSFAKSCSIDLAKYHILVTSFCPGWVKTGMGGANAMLEIEDATKTLSDNILTLGNAHHGAYLNADLTVIPN”, the “soluble on expression in E. coli” value is given as “soluble”.

For the sequence “MPVNNENLTSVLDARPFELSEEQKSPLFKANLLAELVHHYQCNEMYRKFCQKNKFDPLVFDGEVADIPPIPVHIFKAIGHKLSSVSDDTIKAKLQSSATSGVPSTILLDKVTARRQTRAMARVMQEVLGPKRRPFCIMDIDPTSPNATNLGARIAAVKGYLNFASTSKYFIDADSPSAPLEFLEQKFVEHLNSLASEEPLIIFGFTFVLYHTVFKTLKDKGISFQLPKGSQVIHIGGWKKLESEKVDKITFNRDIASVLGISPDDVVDIYGFTEQMGLNYPDCKAGWKHIHAYSDVIIRDESNLEVCGPGKVGLLEFVSPLPHSYPGNVVLTDDLGVIEESLCECGKAGKRFKVIGRAKKAEVRGCGDVMSEKLTKKPSYKPLSQQEERLTIYHSPIFLEHHHHHH”, the “soluble on expression in E. coli” value is given as “not soluble”.

Consider “MAARHAVRGGTVYGGGNGYRVNLVGRGTGGSTMVHHQPLNRISSQRSVAPVGRVLNRGALRNGAQQPLHVSTSSPAFHYMEEQPSPTTNGMVIQAKTPGAGVIQARHMQSQQSFPSGGPARVLMNRSSTNAGLSRMVGGGYDQQLPTAPNGRLMIPSTAVRVPGSGMASPRLQTTPQPLTKSQKAKDEMKMAYQVGREEALQQRRNDLEDDEENLGYAETYSEYTPAKLRSGMAHPDSVVESASLSSVSPPDVKYQISIPEYLIDMGHISALQLEAVIYACQMHERRMPSGERYGYLIGDGAGVGKGRTVACIIFENYLQGRKRAIWLSVSSDLKFDAERDLRDCGAPNIPVYALNKMKYAKISGKENGSIKKGVMFATYTSLIGECRGAKSRKYRSRISQLIQWFGQDYDGVIILDECHRAKNLVPTAGAKPTKTGRMVLELQKALPNARVVYASATGATEPRNMAYMTRLGLWGERQAFPEFHDFISAVERRGVGAMEIVAMDMKQRGLYLARQLSFRGVSFAVQEVQLSSEFVKMYDAAVKLWMEARRQFQTVIETMDEEERSTCKTVWGQFWACHQRFFKYLCIAAKVDTCVQLSREAIKAKKCVVIGLQSTGESATLETLEEMGGELNEFVSTAKTVLYGLIDKHFPTDASFSMGDRDIFKDFDDFERPAKRRKTRETLSFLGDVGFDTWTGVTTGMGGRVGDGVTKNITRGLSGIGRSSMSSSTGNTNNEDANSTTSESSDGSDDEVENDMISENGGESGDLESAREEAEGARTLEDGEQDEWVKALLAEAESSSDDSDEEVVKDEDEDEEAESKSGETHEQEEEFNPFMCDFTNDDPWAHNQQIVEDTPQKDRKAKKRKRDEEEAERLREKVRKREERREKKRRRAIRRAEREKQRRNEELQARGSATDFITSSRICGNGSGEQDDINPMLIKTELLAAVERLAPSLPANTLDQLIDEMGGPEYVAEMTGRRGHMVTSETGDVMYQRRNANAEVSLELINMEEKEKFMRGEKLIAIISEAASSGISLQSDRRAINKRRRVHITLELPWSADKAIQQFGRTHRSNQVSGPEYVFLISELAGEKRFASIVAKRLESLGALTHGDRRATETRDLSQFNMDNKYGRVALDTLLKTVIGQAGTPLIDPPKDYKAGEFFEDMRLYMEGVGLLAKNKTGQYTIEKEAATIPKFLNRILGLPVHAQNSLFHYFSEIVAELIAQSKHDGTYDTGIMDLGTGDDQVRKLETRVFTGRVDNGSFRVEIHKIGVERGVSWEEAMELHKEHSNDDDGFYICHPGGANTANTKKVAALVYGIGKIRMDNGARLYAITRPSTGRSPKLMTMADLSKRFHKVSIDEAKEVWKQQYDSAANMCQHNYVYGKCRTESNGTYCEVGRRTRTYFVLSGSVLSVWPIVEEVLAGSDRKSSRMQVIRVRTEQDQKIVGKLVVFFGK”, for which the “soluble on expression in E. coli” value is recorded as “not soluble”.

Regarding “GPGSMPNEKAQTLTVAEAFAETSKALQQFNIERIRVDGLSRGNACDEEKFRMLTEQEFMREFVFHSRPCIIVGALCDWPALQRWRDDRYLFDLDEKLPMVYEKERTSKGNGEINENDSFHEDEEIVTESDAEDSKNGTSNNEAESQGTLGPRRVTVALTPNGRADAVTYVTYNAVKNESQVHDKLEGKSDFVVTEKLFMSAAELRVTLPELYRLLRANPLVPPLKSQFVDLRRPQRSIAYAQMQNNCLAEEYQHLHADIDTALDRFGTRVFGGKREAANIWLGTPASVSSMHQDWVENLYAVVRGVKEFILVPPWEGVFVPKPELPAAAFTLKAAANCKEGEEEYIFSDSPTRDGTSVPWMDVELTPAAVDDPLHIKEELRDKLHPLIAYVQPGEVLYLPALWLHRVAQHADSEDSRVIEEASTEEIAKVSRHDQKHSAPLPLIAAVNYWYDMSFTNPAVVMLREFGLLL”, the “soluble on expression in E. coli” value is recorded as “not soluble”.

On to “MAKKMKLSDITNMFAGMDVEALEGVTIEGDIEIDLGGLGGGFDPMLAAALGQESAVLAQHFARIAGMFGYPVGIGAPAAPAISPALAAPKLKDLIPAKFDVANIAEWATQIQEVPIGNTSADGGSRGKRVLVGGEKALPFFPDAPMPNRNQVTIDVFDMRIGLAKAVKENYDEVMDSPGEWAKKNVEKFNADMITIHLISTDPLVKDTPPKEAAKTVEEVLQAVDVPIAIGGSGNPQKDPEVLARAAEVAEGERCLLASASLNLDYAAIAEAALKYDHDVLSWTQLDMNAQKELNRKLMKQCNVPRDRIIMDPTTAALGYGLDYAYTNMERIRLAALMGDDELTFPMSSGTTNAWGARESWMVGSPLKEDSDWGPREYRGPIWEIVTGLSLAIAGNDLFMMMHPTSVAVLKQITQTLFGTIDTEQVDIANWIGAEV”, for which the “soluble on expression in E. coli” value was “not soluble”.

Consider “MGSDKIHHHHHHMGHSLNAKYGLKRVINASGRMSILGVSAPTDTVMDAMKHGGQNYVEIADLVDKAGDHIARILDSEAAVVVNSASSGIALSIAAIVTEGNRRKSERLHQEVIAKNEVIMLKGHNVQYGAPVETMIYLGGGKLVEVGYANEGKAEHIEDAIGENTAAILYVKSHHAVQKNMISVEEAWEVAQRNNIPLIVDAAAEEDIQKYVKYADLAIYSGSKAIEGPTSGIVGGKRKYIEWLKVQLHCIGRSMKVGKETTFGLLQALDEYGVKEDKSEQEKELLQVLMPLKELNGVNVTIVQDEAGRAIFRARIHIDENELNKSAKDVVTALREGEIAIYTRDYGVRQGFFDIDPRPLLGDDIHVIEEKLREIVGGN”, for which the “soluble on expression in E. coli” value was “not soluble”.

“MGSDKIHHHHHHMGDNLILSFRPDLQIKEEAGKIYLQSPVRSLVCQRVSRGLRQLMKTLTTGSGSEDFLSEPVFKEDGAGEVAKFYYHLQQFIERGFISYNVMMEQEILAIYTPFSAAPLYNEKLFKQKQRYRLSRFTYSRRDGQEIILESPLANGRVVLTHWLAAAVLHLLAEACTAGEISMQFPALPKKSLQLFLELLLSAGMLEEVDDAGISAGEGDEVLQQWEFHDLLFHARSRLGPHEQPVGGTYRFWGRIAPLPAVKNPMSGERIKLYRPDMEKLREDDYPFSLVLEERKSIRDYADEPISVQQLGEFLYRSARIKELIKANPPAGLLYEASYRPYPGGGAAYELEIYLAVNECEGLPGGLYHYDPWQHELEKLTTRTSEVEGLLKYCSNAAGLKELPPVSLHITARFQRVAWKYQSLTYSVILKDVGALCQTLYLVATAMDLAPTAIGSGPAKLLCRIAGLNYLQESAVGEFILGNKRI”: the “soluble on expression in E. coli” value is “not soluble”.

On to “MRDVLFLPFADGMELAVAADGSAAVGDKPGDVVSAPADVVAYFAARVALMELVSVGAEAKAVVLQNFIADDRWEALCRGVRRTCRELGIDLPITGSTESNFPTVQSALGVTAIGTVANERKRIGITPEEAKFAVIGRPLVGSAVLSHPEWVAPLPLFAALLRTPYIYELIPIGSKGIYYEWTQLLAANGRQGRACACPLPLFSSGGPATSVLVSYDPDGEREIKKQAGSLFFPLHVEW”, for which the “soluble on expression in E. coli” value was “not soluble”.

Turning to “NSNFINIGERTNVAGSRKFARLIREKNYEEALTIARHQVENGAQIIDINFDDALLDARSEMETFLRLIASEPEISKVPVMIDSSNFEVLKVGLKSIQGKAIVNSISLKVGEEKFIEEAKFIKNFGAGVVVMAFDEEGQAATYERKIEICKRAYTILTEKVEFPPENIIFDPNILSIATGIEEHDNYAVNYIKAVKWIKENLPYAKVSGGVSNLSFSFRGNDAIRRAMHSVFLYHAINAGMDMGIVNPAMIDLYDDIDKDLLEKVENVVLNKSSNASESLLEFAQTYKKTTETLEKH”, the “soluble on expression in E. coli” value was “not soluble”.

Source of the values: the DeepSol protein solubility set.
